Residue numbers refer to the chain shown, from its start. Numbers in names are those of the source.
B1: LCR13A1_scFv (soluble scFv of murine 13A1) (scFv)
scFv: DIVLTQSPASLAVSLGQRATISCRASESVDNYGISFLNWFQQKPGQPPKLLIYAASNQGSGVPARFSGSGSGTDFSLNIHPMEEDDTGMYFCQQSKEVPRTFGGGTKLEIKRTVAARQEGGSGEGGSGESNAAAEVQLQQSGTVLARPGASVKMSCKTSGYTFTNYWMHWVRQRPGQGLEWIGTIYPGNSDTNYNQKFKDKAKLTAVTSATTAYMELSSLTNEDSAVYFCTREDSRSLYYNGWDYFDYWGQGTLVTVSSASTKAS
notes: Orientation VL-linker-VH; expressed in E. coli from pCHV101; also called LCR13A1 soluble scFv
B2: 13A1_DH Fab (LCR13A1_VK_GLv1_08 + LCR13A1_VH_GLv1_06) (Fab, V domains shown)
VH: QVQLVQSGSVLAKPGASVKVSCKASGYTFTNYWTHWVRQAPGQGLEWIGTIYPGNSDTNYNQKFKDRAKLTAVTSTSTVYMELSSLRSEDTALYYCTREDSRSLNFNGWDYFDHWGQGTLVTVSS
VL: DIVMTQSPDSLAVSLGQRASISCRASESVDNYGISFLNWFQQKPGQPPKLLIYAASNQGSGVPSRFSGSGSGTDFTLNIHPLEAEDAATYYCQQSKEVPRTFGGGTKVEIK
notes: Human stabilized IgG1 Fab, 6xHis on CH1
B3: 13A1_BF Fab (LCR13A1_VK_GLv1_06 + LCR13A1_VH_GLv1_04) (Fab, V domains shown)
VH: B2 VH with T34M, L93V, H114Y
VL: B2 VL with Q17E, S20T, F40Y
notes: as for B2
B4: 13A1_BG Fab (LCR13A1_VK_GLv1_06 + LCR13A1_VH_GLv1_05) (Fab, V domains shown)
VH: B2 VH with N105Y, F106Y
VL: B2 VL with Q17E, S20T, F40Y
notes: as for B2
B5: 13A1_BH Fab (LCR13A1_VK_GLv1_06 + LCR13A1_VH_GLv1_06) (Fab, V domains shown)
VH: B2 VH
VL: B2 VL with Q17E, S20T, F40Y
notes: as for B2
B6: 13A1_CF Fab (LCR13A1_VK_GLv1_07 + LCR13A1_VH_GLv1_04) (Fab, V domains shown)
VH: B2 VH with T34M, L93V, H114Y
VL: B2 VL with Q17E, S20T, F36L
notes: as for B2
B7: 13A1_CG Fab (LCR13A1_VK_GLv1_07 + LCR13A1_VH_GLv1_05) (Fab, V domains shown)
VH: B2 VH with N105Y, F106Y
VL: B2 VL with Q17E, S20T, F36L
notes: as for B2
B8: 13A1_CH Fab (LCR13A1_VK_GLv1_07 + LCR13A1_VH_GLv1_06) (Fab, V domains shown)
VH: B2 VH
VL: B2 VL with Q17E, S20T, F36L
notes: as for B2
B9: 13A1_DF Fab (LCR13A1_VK_GLv1_08 + LCR13A1_VH_GLv1_04) (Fab, V domains shown)
VH: B2 VH with T34M, L93V, H114Y
VL: B2 VL
notes: as for B2
B10: 13A1_DG Fab (LCR13A1_VK_GLv1_08 + LCR13A1_VH_GLv1_05) (Fab, V domains shown)
VH: B2 VH with N105Y, F106Y
VL: B2 VL
notes: as for B2
B11: 13A1_EF Fab (LCR13A1_VK_GLv1_09 + LCR13A1_VH_GLv1_04) (Fab, V domains shown)
VH: B2 VH with T34M, L93V, H114Y
VL: B2 VL with F36L, F40Y
notes: as for B2
B12: 13A1_EG Fab (LCR13A1_VK_GLv1_09 + LCR13A1_VH_GLv1_05) (Fab, V domains shown)
VH: B2 VH with N105Y, F106Y
VL: B2 VL with F36L, F40Y
notes: as for B2
B13: 13A1_EH Fab (LCR13A1_VK_GLv1_09 + LCR13A1_VH_GLv1_06) (Fab, V domains shown)
VH: B2 VH
VL: B2 VL with F36L, F40Y
notes: as for B2
B14: 13A1_AH Fab (LCR13A1_VK_GLv3_02 + LCR13A1_VH_GLv1_06) (Fab, V domains shown)
VH: B2 VH
VL: DIVMTQSPDSLAVSLGERATINCKSSESVDNYGISFLNWYQQKPGKAPKLLIYAASNQGSGVPDRFSGSGSGTDFTLTISSLQAEDAAVYFCQQSKEVPRTFGGGTKLEIK
notes: as for B2
B15: 13A1_AF Fab (LCR13A1_VK_GLv3_02 + LCR13A1_VH_GLv1_04) (Fab, V domains shown)
VH: B2 VH with T34M, L93V, H114Y
VL: B14 VL
notes: Human stabilized IgG1 Fab: VH-CH1(IgG1)-6xHis and VK-CK, CK/CH1 with the stabilizing mutations of Chen et al 2016
B16: 13A1_AG Fab (LCR13A1_VK_GLv3_02 + LCR13A1_VH_GLv1_05) (Fab, V domains shown)
VH: B2 VH with N105Y, F106Y
VL: B14 VL
notes: as for B2
B17: LCR13A1_VH_GLv3_LCR13A1_VK_GLv3 (LCR13A1-2A) IgG4(S228P) (antibody, V domains shown)
VH: QVQLVQSGSELKKPGASVKVSCKTSGYTFTNYWMHWVRQAPGQGLEWIGTIYPGNSDTNYNQKFQGRVTITRDTSASTAYMELSSLRSEDTAVYFCTREDSRSLYYNGWDYFDYWGQGTTVTVSS
VL: B14 VL with Y40F, A87V
notes: Human IgG4 (IGHG4*01 with S228P) and human CK*01; also called Ab 2A
B18: LCR13A1_VH_GLv1_03_LCR13A1_VK_GLv3 (LCR13A1-2B) IgG4[S228P] (antibody, V domains shown)
VH: B2 VH with T34M, L93V, N105Y, F106Y, H114Y
VL: DIVMTQSPDSLAVSLGERATINCKSSESVDNYGISFLNWFQQKPGKAPKLLIYAASNQGSGVPDRFSGSGSGTDFTLTISSLQAEDVAVYFCQQSKEVPRTFGGGTKLEIKR
notes: VK + CK*01; also called Ab 2B
B19: LCR13A1_VH_GLv3_LCR13A1_VK_GLv1_03 (LCR13A1-2C) IgG4(S228P) (antibody, V domains shown)
VH: B17 VH
VL: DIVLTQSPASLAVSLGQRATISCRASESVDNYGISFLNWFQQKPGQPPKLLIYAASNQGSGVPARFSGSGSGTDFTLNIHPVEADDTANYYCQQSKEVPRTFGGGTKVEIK
notes: Human IgG4 (IGHG4*01 with S228P) and human CK*01; also called Ab 2C
B20: LCR13A1_VH_GLv1_03_LCR13A1_VK_GLv1_03 (LCR13A1-2D) IgG4(S228P) (antibody, V domains shown)
VH: B2 VH with T34M, L93V, N105Y, F106Y, H114Y
VL: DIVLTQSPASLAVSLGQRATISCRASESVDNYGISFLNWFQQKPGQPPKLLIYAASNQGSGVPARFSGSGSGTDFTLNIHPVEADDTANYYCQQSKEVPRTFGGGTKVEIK
notes: Human IgG4 (IGHG4*01 with S228P) and human CK*01; also called Ab 2D
B21: LCR13A1_VH_GLv1_03_LCR13A1_VK_GLv1_04 (LCR13A1-2E) IgG4(S228P) (antibody, V domains shown)
VH: B2 VH with T34M, L93V, N105Y, F106Y, H114Y
VL: B2 VL with M4L, D9A, S20T, T89A
notes: Human IgG4 (IGHG4*01 with S228P) and human CK*01; also called Ab 2E
B22: LCR13A1_VH_GLv1_03_LCR13A1_VK_GLv1_05 (LCR13A1-2F) IgG4[S228P] (antibody, V domains shown)
VH: B2 VH with T34M, L93V, N105Y, F106Y, H114Y
VL: DIVMTQSPDSLAVSLGERATISCRASESVDNYGISFLNWFQQKPGQPPKLLIYAASNQGSGVPSRFSGSGSGTDFTLNIHPLEAEDAATYYCQQSKEVPRTFGGGTKVEIKR
notes: VK + CK*01; also called Ab 2F; hIgG4 13A1-2F

Target: T1, human recombinant TGF-b1 (human, UniProt P01137 279-390)
T1 construct: also called TGF-β1; hTGF-β1
T1 sequence (P01137 279-390 limits assumed): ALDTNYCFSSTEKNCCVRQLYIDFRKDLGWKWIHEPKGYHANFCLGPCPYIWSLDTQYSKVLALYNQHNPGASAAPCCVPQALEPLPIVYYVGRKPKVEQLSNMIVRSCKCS
Assay: ELISA, scFv culture on plate-coated TGF-b1, anti-cmyc detection

Binding result, binds:
B1

Target: T1, human recombinant TGF-b1
Assay: SPR (Biacore T200), 10 nM Fab over amine-coupled TGFb1 (492 RUs)
Procedure: FIG. 27 provides Biacore analysis of the new mutant variant antibodies and compares the new mutants versus parent variant 13A1-2F and versus mu13A1. Selected variants have different monovalent (huIgG1 stabilized Fab format). Biacore binding kinetics, range from lower to higher than the parental mouse 13A1 (mu13A1, hybrid with mouse VK/VH and huCK/huCH1). The data presented is ka, kd and apparent KD. TGFb1 (chip): 492 Rus, Fabs: 10 nM, Flow rate: 30 ul/min, Contact time: 510s, Diss. Time: 600s. Quality: Chi(2)<=1% Rmax and U score <=5. Data is presented for mutant variant antibodies 13A1_AF, 13A1_AG, 13A1_AH, 13A1_BF, 13A1_BG, 13A1_BH, 13A1_CF, 13A1_CG, 13A1_CH, 13A1_DF, 13A1_DG, 13A1_DH, 13A1_EF, 13A1_EG and 13A1_EH.
SPR binding analysis of Fabs: Experiments were performed using the Biacore T200 equipped with the Series S sensor chip CMS (GE Healthcare, cat. #BR-1005-30). The instrument temperature was set at 25° C. for all steps in the analysis while the compartment temperature was set at 10° C. All the assays were performed using the running buffer HBS-EP+ 1×. Recombinant TGF-β1 (Biocat, cat. #TG1-H4212-50 ug-AC) was immobilized with the standard amine-coupling chemistry using a solution of the ligand at 1 ug/mL in acetate, pH 4.5. Recombinant TGF-β1 was injected for several minutes to achieve a target density of 492 RUs. For TGF-β1 kinetic analysis Fabs were diluted in running buffer to 10 nM. One buffer blank was always injected before the injection of the antibody sample. The antibodies were then injected for 8.5 minutes (510 s) at 30 uL/min with 600 seconds of dissociation time. Regeneration was performed with 60 seconds of injection at 30 uL/min of 10 mM glycine 1.5. The Biacore binding kinetics range from lower to higher than the parental mouse 13A1 (mu13A1, hybrid with mouse VK/VH and huCK/huCH1.

Binding result, binds:
B2, B3, B4, B5, B6, B7, B8, B9, B10, B11, B12, B13, B14, B15, B16

Target: T1, human recombinant TGF-b1
Assay: competition ELISA on hTGF-β1-coated plate; competitor biotinylated murine 13A1
Procedure: Nunc Maxisorb ELISA plates were coated overnight at 8° C. with 0.5 μg/ml hTGF-β1 (Peter Sun, NIH) or hTGF-β3 (Shenandoah Biotech) at 0.5 μg/ml in 40 mM glycine buffer pH 9. Plates were washed and blocked with 10% FCS for 1 h at 37° C. In a separate low binding Greiner Bio-One ELISA plate, various concentrations of competing Abs were mixed with a constant concentration of biotinylated parental 13A1 or 1901 at 200 ng/ml in PBS+BSA (10 mg/ml) and then transferred onto the TGF-β-coated Nunc Maxisorb ELISA plate. After incubation for 2 h at 37° C. plates were washed, Avidine-HRP added and incubated for 1 h at 37° C. Plates washed again, TMB substrate was added and bound biotinylated antibody was quantitated by measuring color development in an ELISA reader at a wave length of 450 nm.
The potency of the humanized LCR13A1 IgG4 antibody variants to compete with the parental murine antibody for binding to TGFb1 was assessed by ELISA. The six IgG4 variants LCR13A1_VH_GLv3_LCR13A1_VK_GLv3 (LCR13A1-2A), LCR13A1_VH_GLv1_03_LCR13A1_VK_GLv3 (LCR13A1-2B), LCR13A1_VH_GLv3_LCR13A1_VK_GLv1_03 (LCR13A1-2C), LCR13A1_VH_GLv1_03_LCR13A1_VK_GLv1_03 (LCR13A1-2D), LCR13A1_VH_GLv1_03_LCR13A1_VK_GLv1_04 (LCR13A1-2E) and LCR13A1_VH_GLv1_03_LCR13A1_VK_GLv1_05 (LCR13A1-2F) competed with the parental murine 13A1 antibody for binding to TGFb1 in a dose-dependent manner (FIG. 17).

Binding result, binds:
B17, B18, B19, B20, B21, B22

Reference: patent US20210403546A1 (LUDWIG INSTITUTE FOR CANCER RESEARCH, published 2021)
